{"source": "the RNAGym collection of RNA variant scans (doi:10.7554/elife.80360)", "parents": {"B1": {"name": "Hammerhead Ribozyme (parent)", "chain": "ACCGGAUGUGCUUUCCGGUCUGAUGAGUCCGUGAGGACGAAACAG"}}, "data": [{"variants_of": "B1", "test": "self-cleavage, relative activity (ratio to wild type); higher = more cleavage; co-transcriptional", "values": [{"variant": "ACCGCUUGUGCUUUCCGGUCUGAUGAGUCCGUGAGGACGAAACAG", "note": "[G5C A6U]", "self-cleavage": 0.631}, {"variant": "ACCGGAUGUGCUUUCCAGUCUGGUGAGUCCGUGAGGACGAAACAG", "note": "[G17A A23G]", "self-cleavage": 0.306}, {"variant": "ACCGGAUGUGCUUUCCGGUCUGAUGACUCCGUGAGGAUGAAACAG", "note": "[G27C C38U]", "self-cleavage": 0.792}, {"variant": "ACCGGAUUUGCUGUCCGGUCUGAUGAGUCCGUGAGGACGAAACAG", "note": "[G8U U13G]", "self-cleavage": 1.05}, {"variant": "ACCGGAUCUGCUUUCCGGUCUGAUGAGUCCGUGAGGACGAAACAA", "note": "[G8C G45A]", "self-cleavage": 0.536}, {"variant": "ACCGGAUGUGCUUUCGGGCCUGAUGAGUCCGUGAGGACGAAACAG", "note": "[C16G U19C]", "self-cleavage": 0.344}, {"variant": "ACCGGAUGUGCUUUCCGGCCUGAUGAGUCCGUUAGGACGAAACAG", "note": "[U19C G33U]", "self-cleavage": 0.792}, {"variant": "ACGGGAUGUGCUUUCCGGUCUGAUGAGUCCGUGAGGACGAAAGAG", "note": "[C3G C43G]", "self-cleavage": 0.273}, {"variant": "ACCGGAUGUCCUUUCCGGUCUGAUGUGUCCGUGAGGACGAAACAG", "note": "[G10C A26U]", "self-cleavage": 0.851}, {"variant": "ACCGGAAGUGCUUUCCGGUCUGAUGAGUCCGUGAGGACGAACCAG", "note": "[U7A A42C]", "self-cleavage": 0.358}, {"variant": "ACCGGAUGUGUUUUCCGGUCUGAUGAGGCCGUGAGGACGAAACAG", "note": "[C11U U28G]", "self-cleavage": 0.703}, {"variant": "ACCGGAUGUGCUUUGCGGUCUGAUGAGUCCCUGAGGACGAAACAG", "note": "[C15G G31C]", "self-cleavage": 0.792}, {"variant": "ACCGGAUGUGCAUUCCGGUCUGAUGAGUCCGUGAGGACGAAACCG", "note": "[U12A A44C]", "self-cleavage": 0.481}, {"variant": "ACCGGAUGUGCUUUCCGAUCUGAUGAGUCCAUGAGGACGAAACAG", "note": "[G18A G31A]", "self-cleavage": 1.05}, {"variant": "ACCGGAUGUGCUUUCCGAUCUGAUGAGUCCUUGAGGACGAAACAG", "note": "[G18A G31U]", "self-cleavage": 0.938}, {"variant": "ACCGGAUGUGCUUUCCGGUCUGACGAGUCCGUGAGCACGAAACAG", "note": "[U24C G36C]", "self-cleavage": 0.383}, {"variant": "ACCGGAUCUGCUUUCCGGUCUGAUGAGUCCGUGAGGACGAGACAG", "note": "[G8C A41G]", "self-cleavage": 0.298}, {"variant": "ACCGGAUGUGCUUUCCGGUCUGAGGAGUCCGUGAGGCCGAAACAG", "note": "[U24G A37C]", "self-cleavage": 1.05}, {"variant": "ACCGGAUGUGCUUUCCGGUCUGAUGAGUCCGUCACGACGAAACAG", "note": "[G33C G35C]", "self-cleavage": 0.858}, {"variant": "ACCGGAUGUGCGUUCCGGUCAGAUGAGUCCGUGAGGACGAAACAG", "note": "[U12G U21A]", "self-cleavage": 0.455}, {"variant": "UCCGGAUGUGCUGUCCGGUCUGAUGAGUCCGUGAGGACGAAACAG", "note": "[A1U U13G]", "self-cleavage": 0.812}, {"variant": "ACCGGACGUGCUUUCCGGUAUGAUGAGUCCGUGAGGACGAAACAG", "note": "[U7C C20A]", "self-cleavage": 0.5}, {"variant": "ACCGGAUGUGCUUUCCGGUAUCAUGAGUCCGUGAGGACGAAACAG", "note": "[C20A G22C]", "self-cleavage": 0.349}, {"variant": "ACCGGAUGUGCUUUCCAGUCUGAUGAGUCCGUGAGGACGAAACCG", "note": "[G17A A44C]", "self-cleavage": 0.513}, {"variant": "AGCGGAUGUGCUUUCCGGUCUGAUGAGUCCGUGACGACGAAACAG", "note": "[C2G G35C]", "self-cleavage": 0.339}, {"variant": "ACCGGAUGUGCUUUUCGGUCUGAUGAGUCCGUAAGGACGAAACAG", "note": "[C15U G33A]", "self-cleavage": 0.875}, {"variant": "ACCGGAUGUGCUUUCCGGGCUGAUGAGUCUGUGAGGACGAAACAG", "note": "[U19G C30U]", "self-cleavage": 0.399}, {"variant": "ACCGGAUGUGCCUUCCGGUCUGAUGAAUCCGUGAGGACGAAACAG", "note": "[U12C G27A]", "self-cleavage": 0.605}, {"variant": "ACCGGAUGUGCUUUCCGGACUGAUGAGUCCGUGAGCACGAAACAG", "note": "[U19A G36C]", "self-cleavage": 0.367}, {"variant": "ACCGGAUGUGCUUUCCGGUCUGAUGAGGCCGUGAGGACGAAAUAG", "note": "[U28G C43U]", "self-cleavage": 0.3}, {"variant": "ACCGGAUGUGCUUUCCGGUCUGAUGAGUCCGUGAGGACGAGAUAG", "note": "[A41G C43U]", "self-cleavage": 0.366}, {"variant": "ACCGGACGUGCUUUCAGGUCUGAUGAGUCCGUGAGGACGAAACAG", "note": "[U7C C16A]", "self-cleavage": 0.738}, {"variant": "GCCGGAUGGGCUUUCCGGUCUGAUGAGUCCGUGAGGACGAAACAG", "note": "[A1G U9G]", "self-cleavage": 1.58}, {"variant": "ACCGUAUGUGCUUUCCGGUCUGAUGAGUCCGCGAGGACGAAACAG", "note": "[G5U U32C]", "self-cleavage": 0.822}, {"variant": "ACCGGAUGUGCUUUCCGGUCUGAUCAGUCCGUAAGGACGAAACAG", "note": "[G25C G33A]", "self-cleavage": 0.31}, {"variant": "ACCGGAUGUGCUUUCCGGUCUGAUGCGUCCGUGAGGACGAUACAG", "note": "[A26C A41U]", "self-cleavage": 0.299}, {"variant": "ACCGGAUGUGCUUUCCUGUCUGGUGAGUCCGUGAGGACGAAACAG", "note": "[G17U A23G]", "self-cleavage": 0.382}, {"variant": "ACCGGAUGUGCUUUCCGGUCUGAUGAUUCCGUCAGGACGAAACAG", "note": "[G27U G33C]", "self-cleavage": 0.484}, {"variant": "ACCGGAUGUGCUUUCCGCUCUGAUGAGUCCGUGAGGACGAAAAAG", "note": "[G18C C43A]", "self-cleavage": 0.327}, {"variant": "ACCGGAUAUGCUUUCCGGUCUGAUGAGUCCGUGAGGGCGAAACAG", "note": "[G8A A37G]", "self-cleavage": 0.966}, {"variant": "UCCGGAUGUGCUUUCCGGUCUGAUGAGUCCGAGAGGACGAAACAG", "note": "[A1U U32A]", "self-cleavage": 0.692}, {"variant": "GCCGGAUGUGCGUUCCGGUCUGAUGAGUCCGUGAGGACGAAACAG", "note": "[A1G U12G]", "self-cleavage": 1.91}, {"variant": "ACCGGAGGUGCUUUCCGGUCUGAUGAGUCCGUGACGACGAAACAG", "note": "[U7G G35C]", "self-cleavage": 0.979}, {"variant": "ACCGGAUGUGCUUUCCGGCCUUAUGAGUCCGUGAGGACGAAACAG", "note": "[U19C G22U]", "self-cleavage": 0.267}, {"variant": "ACCGGAUGUGCUUUCCGGUCUGAUGAGCCCGGGAGGACGAAACAG", "note": "[U28C U32G]", "self-cleavage": 0.556}, {"variant": "ACCGGAUAUGCUUUCCGGUCUGAUGAGUCCGUGAGGACGAAAAAG", "note": "[G8A C43A]", "self-cleavage": 0.335}, {"variant": "ACCGGAUGUCCUUUCCGGUCUGAUGAGUCCGUGAGGGCGAAACAG", "note": "[G10C A37G]", "self-cleavage": 0.958}, {"variant": "ACCGGAUGUGCUUUCCGGUCUGAAGAGUCCGUGAGGACGAAACAU", "note": "[U24A G45U]", "self-cleavage": 0.832}, {"variant": "ACCGGAUGUGCUUUCCGGUGUGAUGAGUCCGUGAGGACGAUACAG", "note": "[C20G A41U]", "self-cleavage": 0.371}, {"variant": "ACCGGAUGUGCUUUCCGGUCUGAUGAGUCCGGGAGAACGAAACAG", "note": "[U32G G36A]", "self-cleavage": 0.556}, {"variant": "ACCGGAUGUGCUCUCCGGUCUGAGGAGUCCGUGAGGACGAAACAG", "note": "[U13C U24G]", "self-cleavage": 0.837}, {"variant": "ACCGCAUGUGCUUUCCGGUCUGAUGAGUCCGUGAGAACGAAACAG", "note": "[G5C G36A]", "self-cleavage": 0.35}, {"variant": "ACCGGAUCUGCUUUCCGGUCUGAUGAGUCCGUGACGACGAAACAG", "note": "[G8C G35C]", "self-cleavage": 0.726}, {"variant": "ACCGGAUGUGCUUUCCGGUCUGAUGAGUCCGUGAGGACAAAUCAG", "note": "[G39A A42U]", "self-cleavage": 0.348}, {"variant": "ACCGGAUGUGCUUUCCGGACUGAUGAGUCCCUGAGGACGAAACAG", "note": "[U19A G31C]", "self-cleavage": 0.384}, {"variant": "ACCGGAUGUGCUUUCCGGUCGGAUGAGUCCGCGAGGACGAAACAG", "note": "[U21G U32C]", "self-cleavage": 0.523}, {"variant": "ACCGGAUGUGCUUUCCGGUCGGAUGAGUCCGAGAGGACGAAACAG", "note": "[U21G U32A]", "self-cleavage": 0.389}]}]}
